± gives the standard deviation of the averaged measurements.

This series deals with VchCAST RNA-guided transposition machinery (E. coli BL21(DE3) host, lacZ target). The series can be described thus: relative integration efficiency (T-LR orientation) vs wild-type transposon end (log2 (normalized fold change)); transposon end mutated: right end (5 bp flank + 75 bp right end); higher = more efficient transposition. As to the method: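 Pooled, barcoded VchCAST (Tn6677) mini-transposon donor libraries; each variable transposon-end sequence sits in a fixed pDonor mini-transposon context (10-bp barcode and cargo not included). Left- or right-end libraries were co-transformed with pEffector (TniQ-Cascade, TnsABC, lacZ crRNA, T7, 0.1 mM IPTG) into E. coli BL21(DE3) and grown 18 h at 37 C. T-LR and T-RL junction amplicons were sequenced; output/input barcode fold change was normalised to the mean of four wild-type barcodes and log2-transformed. Two biological replicates; zero-count/undetected variants carry floor values (-10 / -15), censored here. Barcode uncoupling by PCR recombination adds noise.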
Consider “ACATTTGTTGATACAACCATAAGTTGATATTTTCACCCATAAATTGATAATTATCACACCCATAAATTGATAATTACTCTGATCATAGTCAGACCAACATTGCTACGACCCGTATTCGCACCGACAC”, for which the “relative integration efficiency (log2)” value amounted to 2.73 ± 0.044.

With “ACATTTGTTGATACAACCATAAAATGATAATTACACCCATAAATTGATAATTATCACACCCATAAATTGATATTGCCTCTTCTTTGCTCACGCATCTAGTCGGTCCACGTTTGGTTCGCACCGACAC”, the “relative integration efficiency (log2)” value was -0.129 ± 0.28. Take “ACATTTGTTGATACAACCATAAAATGCTAATTACACCCATAAATTGCTAATTATCACACCCATAAATTGCTATTGCCTCTGATCATAGTCAGACCAACATTGCTACGACCCGTATTCGCACCGACAC”: the “relative integration efficiency (log2)” value is -0.567 ± 0.21. Regarding “ACATTTGTTGATACAACCATAAAATGATAATTACAACCATAAGTTGATATTTTTCACACCCATAAATTGATAATTACTCTGATCATAGTCAGACCAACATTGCTACGACCCGTATTCGCACCGACAC”, the “relative integration efficiency (log2)” value is -0.141 ± 0.51. “ACATTTGTTGATACAACCATAAAATGATAATTACAACCATATATTGATATCTCTCACAACCATAAAATGATAATTACTCTGATCATAGTCAGACCAACATTGCTACGACCCGTATTCGCACCGACAC”: the “relative integration efficiency (log2)” value came out at 0.146 ± 0.15. Regarding “ACATTTGTTGATACAACCATAACCGTCGCCGGCACAAACGCCCGGTCGCCGGCGACACAAACGCCCGGTCGCGGTAAGAGGATCATAGTCAGACCAACATTGCTACGACCCGTATTCGCACCGACAC”, the “relative integration efficiency (log2)” value is -6.09 ± 0.56. Consider “ACATTTGTTGATACAACCATAAAGTGATATTTACAACCATAAGTTGATATTTTTCACACCCATAAATTGATATTGCCTCTGATCATAGTCAGACCAACATTGCTACGACCCGTATTCGCACCGACAC”, for which the “relative integration efficiency (log2)” value was determined as 0.319 ± 0.19. Turning to “ACATTTGTCGATACAACCATAAAATGATAATTACACCCATAAATGGATCATTATCACACCCAATTTAACTATAACGCTCTGATCATAGTCAGACCAACATTGCTACGACCCGTATTCGCACCGACAC”, the “relative integration efficiency (log2)” value was 0.97 ± 0.063. In the case of “ACATTTGTTGATACACCCATAAATTGATATTGCCACCCATAAATTGATAATTATCACAACCATAAAGTGATATTTACTCTGATCATAGTCAGACCAACATTGCTACGACCCGTATTCGCACCGACAC”, the “relative integration efficiency (log2)” value was -0.376 ± 0.6. Regarding “ACATTTGTTGATACAACCATAAAATGATAAATACACCCATAAATTGATAATTGTGACACCGAATTTAACTATAACGCTCTGATCATAGTCAGACCAACATTGCTACGACCCGTATTCGCACCGACAC”, the “relative integration efficiency (log2)” value is 2.56 ± 0.14. As to “ACATTTGTTGATACAACCATAAAATGATAATTCACAAACGCCCGGTCGCCGGCGACACAAACGCCCGGTCGCGGTAAGAGGATCATAGTCAGACCAACATTGCTACGACCCGTATTCGCACCGACAC”, the “relative integration efficiency (log2)” value was 1.4 ± 0.079. The value for “ACATTTGTTGATACAACCATAAAATGATAATTAATAATTATTTATAACACCCATAAATTGATAATTATCAACAAACGCCCGGTCGCGGTACTCTGATCATAGTCAGACCAACATTGCTACGACCCGT” was 0.00268 ± 0.47; that for “ACATTTGTTGATACAACCATAAAATGATAATTACACCCATAAATTGATAATTATCACACCCATAAATTGATCGGTAAGAGGATCATAGTCAGACCAACATTGCTACGACCCGTATTCGCACCGACAC” was 1.33 ± 0.2.

For the sequence “ACATTTGTTGATACAACCATAAAATGATAATTAATAATTATTTATAATCACCCATAAATTGATAATTATCACACCCATAAATTGATATTGCCTCTGATCATAGTCAGACCAACATTGCTACGACCCG”, the “relative integration efficiency (log2)” value stood at 0.877 ± 0.18. As to “ACATTTGTTGATACAACCATATTTAGATAATTACACCCATAAATTGATAATTATCACACCCATAAATTGATATTGCCTCTGATCATAGTCAGACCAACATTGCTACGACCCGTATTCGCACCGACAC”, the “relative integration efficiency (log2)” value is -0.623 ± 0.22. For the sequence “ACATTTGTTGATACAACCATAAAATGATAATTACCCCCATAAATTGATAATTGTGACACCGAATTTAACTATAACGCTCTGATCATAGTCAGACCAACATTGCTACGACCCGTATTCGCACCGACAC”, the “relative integration efficiency (log2)” value came out at 1.94 ± 0.097.

On to “ACATTTGTTGATACAACCATAAAATGATAATTACACCCATAAATTGATATAATTCACACCCATAAATTGATATTGCCTCTGATCATAGTCAGACCAACATTGCTACGACCCGTATTCGCACCGACAC”, for which the “relative integration efficiency (log2)” value worked out at 0.18 ± 0.19. In the case of “ACATTTGTTGATACAACCATAAAATGATAATTACACCCATAAATTGATAATTATCACACCCATAAATTGATATTGCCTCTGATCATAGTCCAACCATAAAATGATAATTAAGACCAAGCACCGACAC”, the “relative integration efficiency (log2)” value was -0.498 ± 1.1. Regarding “ACATTTGTTGATACCACCATCAAATGATAATTCCACCCCTAAATTGATAATTATCACACCCAATTTAACTATAACGCTCTGATCATAGTCAGACCAACATTGCTACGACCCGTATTCGCACCGACAC”, the “relative integration efficiency (log2)” value was -2.31 ± 0.042. The value for “ACATTTGTTGATACAACCATAAAATGATAATTAACAAACGCCCGGTCGCCGGCGACACAAACGCCCGGTCGCGGTAAGAGGATCATAGTCAGACCAACATTGCTACGACCCGTATTCGCACCGACAC” was 0.957 ± 0.25.

In the case of “ACATTTGTTGATACAACCATAAAATGATAATTACACCCATAAATTGATAATTATCACACCCATAAATTGATATTGCCTCTGATCATTTGCATAAAAATTCATCTAGTCAGACCAACAGCACCGACAC”, the “relative integration efficiency (log2)” value was -0.0028 ± 0.22. The same measure for “ACATTTGTTGATACAACCATAAAATGATAATTACACCCATAAATTGATAATTATCACACAACGAAATTGATATTGCCTCTGATCATAGTCAGACCAACATTGCTACGACCCGTATTCGCACCGACAC”: 2.18 ± 0.14; for “ACATTTGTTGATACAACCATAAAGTGATATTTACACCCATAAATTGATAATTATCACACCCATAAATTGATATTGCCTCTGATCATAGTCAGACCAACATTGCTACGACCCGTATTCGCACCGACAC”: -0.336 ± 0.44; for “ACATTTGTTGATACAACCATAAAATGATATAATCACCCATAAATTGATAATTATCACACCCATAAATTGATATTGCCTCTGATCATAGTCAGACCAACATTGCTACGACCCGTATTCGCACCGACAC”: -0.788 ± 0.69.

Regarding “ACATTTGTTGATACAACCATAAAAAGATAATTACACCCATAAATTGATAATGATGACACCGAATTTAACTATAACGCTCTGATCATAGTCAGACCAACATTGCTACGACCCGTATTCGCACCGACAC”, the “relative integration efficiency (log2)” value came out at 2.23 ± 0.057.

(Values after the supplement of paper PMC10201428.)
